The supplement of paper PMC10567573

B1: OAS1 (parent)
chain: LTVYAWERGSMKTHFNTAQGFRTV
B2: RSPH3 (parent)
chain: LELQRQREARKRALARKQAQEQLR

Variants of: B1
Experiment: protein stability index of a GFP-peptide fusion (GPS, HEK-293T) (PSI 1-6); higher = more stable
Details: c terminus: a fixed tail appended
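Also: lentivirally expressed fusions sorted by FACS into six bins by GFP to DsRed ratio, PSI derived from sequencing read proportions per bin multiplied by bin number.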

Protein stability index: each site, then its substitutions
H14: K 2.35; T 2.86; N 1.74; G 1.69; V 3.57; W 2.76; I 2.29; F 2.8; Y 2.75; E 2.42; P 2.56; Q 1.75; S 2.44; L 2.88; M 3.15; R 3.04; D 2.33
R8: W 2.69; E 2.4; N 2.65; T 3.1; L 3.07; S 2.55; A 2.38; V 2.77; G 2.33; Q 2.56; D 2.89; H 2.13; I 2.15; Y 3.38; P 4.46; C 1.85; M 2.73; K 1.53; F 2.26
T17: G 2.67; C 1.78; H 2.95; F 2.25; D 2.33; A 1.69; I 3.17; K 2.48; E 1.61
M11: K 2.38; N 2.06; A 1.75; F 2.49; C 3.65; V 2.09; P 1.85; Q 2.14; E 2.27; G 3.37; H 2.31; R 2.16; Y 3.28; S 2.19; I 1.97; D 2.21; T 2.09; L 1.51
V3: I 3.14; E 2.09; M 2.16; N 2.05; C 2.02; W 2.92; S 2.12; P 1.77; H 2.36; L 2.49; G 1.91; F 3.04; T 1.96; Y 2.7; D 2.57; A 2.24; Q 2.09; K 2.12; R 2.46
W6: G 1.73; S 1.59; Q 1.66; P 1.69; A 1.86; T 2.45; L 2.63; H 2.2; F 2.89; I 2.41; N 2.06; D 1.87; R 1.44; V 2.29; C 1.61; E 2.23; M 3.17; K 1.53; Y 1.9
F15: Q 1.53; G 1.61; S 2.49; K 2.01; D 2.47; A 2.35; N 1.55; C 1.96; P 1.52; M 2.26; Y 2.28; R 2.93; I 2.88; V 2.08; T 1.9; H 2.39; E 2.27; W 2.62; L 2.21
T13: Y 3.56; D 2.74; M 3.37; V 2.68; I 2.75; K 1.51; H 1.83; C 1.13; R 1.64; F 3.1; G 2.33; A 2.88; S 2.01; N 2.25; P 2.06; Q 2.06; L 2.99; E 2.06; W 3.26
L1: A 2.32; Y 2.19; G 2.31; R 2.28; I 1.71; E 2.17; Q 1.79; N 2; V 1.5; P 2.14; K 2.17; D 2.26; F 2.48; H 2.13; S 2.1; C 1.74; M 2.57; W 2.79; T 2.09
S10: E 3.28; A 2.05; L 2; I 1.91; P 1.54; C 2.82; R 2.08; F 2.93; Y 3.69; D 1.75; V 2.62; Q 1.99; G 2.28; N 2.53; H 2.71; M 2.46
Y4: I 3.51; P 2.31; Q 1.86; C 1.38; A 2.01; E 1.97; M 1.51; N 1.94; D 2.09; L 2.55; W 1.19; G 2.76; K 2.16; R 1.77; S 1.83; F 2.96; T 1.59; H 1.66
T2: M 1.69; K 2.87; W 2.55; F 3.19; G 1.25; S 2.21; P 1.93; A 2.03; L 2.7; C 1.6; D 1.8; H 2.11; I 2.45; E 1.91; V 2.23; Y 2.45; Q 1.86; R 2.04; N 1.84
A5: Y 3.25; C 3.68; M 2.06; L 2.8; K 1.63; P 2.19; H 1.69; G 2.14; Q 1.54; D 2.59; R 2.9; V 2.34; S 1.91; N 2.29; E 2.46; T 2.75
G9: F 3.19; D 2.6; E 2.7; Q 1.87; N 2.48; H 1.61; T 2.55; Y 2.93; L 2.91; C 3.73; M 2.85; R 2.02; K 1.8; I 1.86; S 2.49; W 2.69; P 3.81
N16: C 2.63; L 2.23; V 3.22; W 3.85; H 2.69; M 3.47; E 2.21; G 3.06; A 3.67; F 3.37; T 2.45; Q 2.83; D 1.66; Y 1.95; S 3.5; R 1.53; K 3.06
E7: Y 1.92; H 2.41; C 3.64; I 2.63; M 3.48; P 2.46; R 2.05; V 3.45; G 2.18; D 2.14; A 3.15; T 3.32; W 1.98; Q 3.28; N 1.99; F 2.85; S 2.76; L 3.71; K 2.28
K12: H 2.87; V 2.45; M 3.75; R 1.51; W 2.8; C 3.27; P 5.14; Y 2.49; S 4.72; I 2.98; T 2.98; D 2.29; E 2.22; A 3.08; L 2.72; F 1.8; Q 2.43; G 1.54; N 2.66

Variants of: B2
Experiment: as above
Details: c terminus: a fixed tail appended

Protein stability index: each site, then its substitutions
R24: E 4.56; W 2.98; C 4.13; G 4.13; P 3.86; D 4.2; H 3.85; F 3.77; M 3.33; K 3.72; Y 3.16; S 3.8; L 3.18; V 4.43; Q 4.54; I 3.46; A 3.97; N 4.23; T 3.82
L23: E 4.59; R 4.16; Q 4.35; N 3.92; G 4.78; H 4.25; F 3.96; P 3.78; M 4.31; W 3.69; I 3.56; V 2.77; K 3.83; T 4.08; Y 3.9; S 3.78
